Assay results: patent US20260116991A1
Changes are numbered by the printed parent chain. Values belong to the binder of their own block, whether it stands above or below them.

What was measured:
[1] = biological target: monkey GPC3 on HEK293T-monkey GPC3 cells (monkey); assay: FACS on HEK293T-monkey GPC3 cells
[2] = biological target: monkey GPC3-His protein (monkey); assay: ELISA, monkey GPC3-His coated; antibody 0.02 nM
[3] = biological target: monkey GPC3-His protein (monkey); assay: ELISA, monkey GPC3-His coated; antibody 0.11 nM
[4] = biological target: monkey GPC3-His protein (monkey); assay: ELISA, monkey GPC3-His coated; antibody 0.53 nM
[5] = biological target: monkey GPC3-His protein (monkey); assay: ELISA, monkey GPC3-His coated; antibody 2.67 nM
[6] = biological target: monkey GPC3-His protein (monkey); assay: ELISA, monkey GPC3-His coated; antibody 0.004 nM
[7] = biological target: monkey GPC3-His protein (monkey); assay: ELISA, monkey GPC3-His coated; antibody 13.33 nM
[8] = biological target: monkey GPC3-His protein (monkey); assay: ELISA, monkey GPC3-His coated; antibody 66.66 nM
[9] = biological target: monkey GPC3-His protein (monkey); assay: ELISA, monkey GPC3-His coated; antibody 0.0008 nM

EC50 [1]: 5.96 nM
Max MFI [1]: 87000 MFI
B1: GC33 IgG (antibody, V domains shown)
VH: QVQLVQSGAEVKKPGASVKVSCKASGYTFTDYEMHWVRQAPGQGLEWMGALDPKTGDTAYSQKFKGRVTLTADKSTSTAYMELSSLTSEDTAVYYCTRFYSYTYWGQGTLVTVSS
VL: DVVMTQSPLSLPVTPGEPASISCRSSQSLVHSNRNTYLHWYLQKPGQSPQLLIYKVSNRFSGVPDRFSGSGSGTDFTLKISRVEAEDVGVYYCSQNTHVPPTFGQGTKLEIKR

OD450 nm [2]: 1.34
OD450 nm [3]: 2.31
OD450 nm [4]: 2.65
OD450 nm [5]: 2.58
OD450 nm [6]: 0.467
OD450 nm [7]: 2.62
OD450 nm [8]: 2.58
OD450 nm [9]: 0.188
B2: hAb003LH1L1 (antibody, human IgG1, V domains shown)
VH: EVQLVQSGAEVKKPGSSVKVSCKASGYTFSDYEMHWVRQAPGQGLEWMGTIDPETGNTAYTQKFMDRVTITADKSTSTAYMELSSLRSEDTAVYYCTRGYSFTYWGQGTLVTVSS
VL: DIVMTQTPLSLPVTPGEPASISCRSSQNIVHSNGNTYLQWYLQKPGQSPQLLIFKVSNRFSGVPDRFSGSGSGTDFTLKISRVEAEDVGVYYCFQGSHVPFTFGQGTKLEIK

EC50 [1]: 6.16 nM
Max MFI [1]: 84800 MFI
B3: hAb006LH3L1d (antibody, human IgG1, V domains shown)
VH: B2 VH with S30T, M34I, T50A, E54K, T61N, D66G, I70L, G99Y, Y100F, T103A
VL: B2 VL with N28T, I29F, G34S, F54Y, F101Y

EC50 [1]: 6.54 nM
Max MFI [1]: 82900 MFI
B4: hAb006LH3L1e (antibody, human IgG1, V domains shown)
VH: B2 VH with S30T, M34I, T50A, E54K, T61N, D66G, I70L, G99Y, Y100F, T103A
VL: B2 VL with N28T, I29F, G34V, F54Y, F101Y

EC50 [1]: 2.03 nM
Max MFI [1]: 26900 MFI
B5: hAb001H2L1a (antibody, human IgG1, V domains shown)
VH: EVQLVESGGGLVQPGGSLRLSCAASGFSFNTNAMNWVRQAPGKGLEWVGRIRSKSNNYATYYADSVKDRFTISRDDSKSSLYLQMNSLKTEDTAVYYCVRDGYYVLFAYWGQGTLVTVSS
VL: B2 VL with S25F, N28S, H31N, N33D, Q39E, Y41F, F54Y

EC50 [1]: 19.9 nM
Max MFI [1]: 59700 MFI
B6: hAb007LH1L1e (antibody, human IgG1, V domains shown)
VH: B2 VH with T61N, M65K, D66G, G99P, F102L
VL: B2 VL with N28S, I29F, G34V, N35D, F54Y, F101Y

EC50 [1]: 1.87 nM
Max MFI [1]: 24900 MFI
B7: hAb001H1L1a (antibody, human IgG1, V domains shown)
VH: B5 VH with S79N
VL: B2 VL with S25F, N28S, H31N, N33D, Q39E, Y41F, F54Y

EC50 [1]: 1.08 nM
Max MFI [1]: 33300 MFI
B8: hAb001H2L1 (antibody, human IgG1, V domains shown)
VH: B5 VH
VL: B2 VL with S25F, N28S, H31N, Q39E, Y41F, F54Y

EC50 [1]: 4.77 nM
Max MFI [1]: 22600 MFI
OD450 nm [2]: 0.483
OD450 nm [3]: 1.48
OD450 nm [4]: 2.2
OD450 nm [5]: 2.29
OD450 nm [6]: 0.148
OD450 nm [7]: 2.35
OD450 nm [8]: 2.42
OD450 nm [9]: 0.087
B9: hAb003LH1L1a (antibody, human IgG1, V domains shown)
VH: B2 VH
VL: B2 VL with N33D

OD450 nm [2]: 0.08
OD450 nm [3]: 0.226
OD450 nm [4]: 1.05
OD450 nm [5]: 1.95
OD450 nm [6]: 0.057
OD450 nm [7]: 2.09
OD450 nm [8]: 2.18
OD450 nm [9]: 0.044
B10: hAb006LH3L1a (antibody, human IgG1, V domains shown)
VH: B2 VH with S30T, M34I, T50A, E54K, T61N, D66G, I70L, G99Y, Y100F, T103A
VL: B2 VL with N28T, I29F, N33D, F54Y, F101Y

EC50 [1]: 1.33 nM
Max MFI [1]: 33500 MFI
B11: hAb001H1L1 (antibody, human IgG1, V domains shown)
VH: B5 VH with S79N
VL: B2 VL with S25F, N28S, H31N, Q39E, Y41F, F54Y

OD450 nm [2]: 0.197
OD450 nm [3]: 0.605
OD450 nm [4]: 1.57
OD450 nm [5]: 2.21
OD450 nm [6]: 0.097
OD450 nm [7]: 2.44
OD450 nm [8]: 2.36
OD450 nm [9]: 0.067
B12: hAb007LH1L1a (antibody, human IgG1, V domains shown)
VH: B2 VH with T61N, M65K, D66G, G99P, F102L
VL: B2 VL with N28S, I29F, N33D, N35D, F54Y, F101Y

OD450 nm [2]: 0.182
OD450 nm [3]: 0.468
OD450 nm [4]: 1.41
OD450 nm [5]: 2.1
OD450 nm [6]: 0.093
OD450 nm [7]: 2.39
OD450 nm [8]: 2.45
OD450 nm [9]: 0.065
B13: hAb007LH2L1a (antibody, human IgG1, V domains shown)
VH: B2 VH with S30T, T61N, M65K, D66G, G99P, F102L
VL: B2 VL with N28S, I29F, N33D, N35D, F54Y, F101Y

EC50 [1]: 1.68 nM
Max MFI [1]: 27200 MFI
B14: hAb001H1aL1a (antibody, human IgG1, V domains shown)
VH: B5 VH with D68G, S79N
VL: B2 VL with S25F, N28S, H31N, N33D, Q39E, Y41F, F54Y

OD450 nm [2]: 0.135
OD450 nm [3]: 0.337
OD450 nm [4]: 1.08
OD450 nm [5]: 1.89
OD450 nm [6]: 0.079
OD450 nm [7]: 2.37
OD450 nm [8]: 2.34
OD450 nm [9]: 0.069
B15: hAb007LH3L1a (antibody, human IgG1, V domains shown)
VH: B2 VH with S30T, T61N, M65K, D66G, I70L, G99P, F102L
VL: B2 VL with N28S, I29F, N33D, N35D, F54Y, F101Y

OD450 nm [2]: 0.065
OD450 nm [3]: 0.137
OD450 nm [4]: 0.549
OD450 nm [5]: 1.39
OD450 nm [6]: 0.055
OD450 nm [7]: 1.84
OD450 nm [8]: 2.06
OD450 nm [9]: 0.047
B16: hAb006LH2L1a (antibody, human IgG1, V domains shown)
VH: B2 VH with S30T, M34I, T50A, E54K, T61N, D66G, G99Y, Y100F, T103A
VL: B2 VL with N28T, I29F, N33D, F54Y, F101Y

OD450 nm [2]: 1.22
OD450 nm [3]: 2.18
OD450 nm [4]: 2.46
OD450 nm [5]: 2.58
OD450 nm [6]: 0.418
OD450 nm [7]: 2.64
OD450 nm [8]: 2.55
OD450 nm [9]: 0.192
B17: hAb003LH1L1b (antibody, human IgG1, V domains shown)
VH: B2 VH
VL: B2 VL with G34R

OD450 nm [2]: 0.924
OD450 nm [3]: 2.1
OD450 nm [4]: 2.57
OD450 nm [5]: 2.7
OD450 nm [6]: 0.34
OD450 nm [7]: 2.46
OD450 nm [8]: 2.69
OD450 nm [9]: 0.128
B18: hAb006LH2L1b (antibody, human IgG1, V domains shown)
VH: B2 VH with S30T, M34I, T50A, E54K, T61N, D66G, G99Y, Y100F, T103A
VL: B2 VL with N28T, I29F, G34A, F54Y, F101Y

OD450 nm [2]: 0.877
OD450 nm [3]: 2.13
OD450 nm [4]: 2.49
OD450 nm [5]: 2.75
OD450 nm [6]: 0.309
OD450 nm [7]: 2.5
OD450 nm [8]: 2.77
OD450 nm [9]: 0.111
B19: hAb006LH1L1b (antibody, human IgG1, V domains shown)
VH: B2 VH with M34I, T50A, E54K, T61N, D66G, G99Y, Y100F, T103A
VL: B2 VL with N28T, I29F, G34A, F54Y, F101Y

OD450 nm [2]: 0.491
OD450 nm [3]: 1.46
OD450 nm [4]: 2.43
OD450 nm [5]: 2.6
OD450 nm [6]: 0.122
OD450 nm [7]: 2.54
OD450 nm [8]: 2.56
OD450 nm [9]: 0.085
B20: hAb007LH1L1 (antibody, human IgG1, V domains shown)
VH: B2 VH with T61N, M65K, D66G, G99P, F102L
VL: B2 VL with N28S, I29F, N35D, F54Y, F101Y

OD450 nm [2]: 1.06
OD450 nm [3]: 2.01
OD450 nm [4]: 2.38
OD450 nm [5]: 2.46
OD450 nm [6]: 0.358
OD450 nm [7]: 2.23
OD450 nm [8]: 2.39
OD450 nm [9]: 0.129
B21: hAb006LH2L1 (antibody, human IgG1, V domains shown)
VH: B2 VH with S30T, M34I, T50A, E54K, T61N, D66G, G99Y, Y100F, T103A
VL: B2 VL with N28T, I29F, F54Y, F101Y

OD450 nm [2]: 0.305
OD450 nm [3]: 0.958
OD450 nm [4]: 1.97
OD450 nm [5]: 2.39
OD450 nm [6]: 0.128
OD450 nm [7]: 2.37
OD450 nm [8]: 2.54
OD450 nm [9]: 0.071
B22: hAb007LH1L1b (antibody, human IgG1, V domains shown)
VH: B2 VH with T61N, M65K, D66G, G99P, F102L
VL: B2 VL with N28S, I29F, G34R, N35D, F54Y, F101Y

OD450 nm [2]: 0.078
OD450 nm [3]: 0.227
OD450 nm [4]: 0.917
OD450 nm [5]: 1.63
OD450 nm [6]: 0.058
OD450 nm [7]: 1.82
OD450 nm [8]: 2.08
OD450 nm [9]: 0.05
B23: hAb006LH1L1a (antibody, human IgG1, V domains shown)
VH: B2 VH with M34I, T50A, E54K, T61N, D66G, G99Y, Y100F, T103A
VL: B2 VL with N28T, I29F, N33D, F54Y, F101Y

EC50 [1]: 13.6 nM
Max MFI [1]: 80400 MFI
B24: hAb007LH1L1d (antibody, human IgG1, V domains shown)
VH: B2 VH with T61N, M65K, D66G, G99P, F102L
VL: B2 VL with N28S, I29F, G34S, N35D, F54Y, F101Y

OD450 nm [2]: 0.687
OD450 nm [3]: 1.17
OD450 nm [4]: 1.25
OD450 nm [5]: 1.32
OD450 nm [6]: 0.232
OD450 nm [7]: 1.24
OD450 nm [8]: 1.23
OD450 nm [9]: 0.09
B25: hAb005LH2L1b (antibody, human IgG1, V domains shown)
VH: EVQLVQSGAEVKKPGASVKVSCKASGYTFTDYEMHWVRQAPGQGLEWMGAIDPETGNTAYIQKFKGRVTLTTDKSTSTAYMELRSLRSDDTAVYYCTRFYSYSHWGQGTTVTVSS
VL: DIVMTQTPLSLPVTPGEPASISCRSSQSLVHSNRNTYLHWYLQKPGQSPQLLIYKVSNRFSGVPDRFSGSGSGTDFTLKISRVEAEDVGVYYCSQNTHVPPTFGGGTKVEIK
